# T1: GatD (glutamine amidotransferase-like protein GatD of Staphylococcus aureus) (Staphylococcus aureus, UniProt A0A0H2WZ38 1-243)
# T1 construct: GatD, glutamine amidotransferase-like subunit of the GatD/MurT Lipid II amidation complex, Staphylococcus aureus; full length; source: E. coli BL21, co-expressed with MurT from pET21b (gatD/murT operon), purified (Ni-NTA, two rounds of SEC)
# T1 sequence (looked up): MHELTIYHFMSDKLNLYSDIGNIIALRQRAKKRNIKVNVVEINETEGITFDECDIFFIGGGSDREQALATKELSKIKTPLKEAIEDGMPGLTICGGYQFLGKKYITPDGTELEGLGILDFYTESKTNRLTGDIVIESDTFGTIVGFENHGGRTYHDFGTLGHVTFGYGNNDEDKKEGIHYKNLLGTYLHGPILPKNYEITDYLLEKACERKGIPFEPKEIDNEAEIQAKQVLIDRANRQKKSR
# Biological target: T1, GatD (glutamine amidotransferase-like …)
# Assay: SAXS; two-fold dilution series 0.5 to 8 mg/mL of GatD/MurT in SEC II buffer, extrapolated to zero concentration; beamline P12, DESY
# Settings: both partners purified
binder,measurement,value
"MurT (Mur ligase homolog MurT of Staphylococcus aureus) (enzyme, UniProt A0A0H2WZQ7 1-437, looked up, MurT, Mur ligase homolog subunit of the GatD/MurT Lipid II amidation complex, Staphylococcus aureus; full length, untagged; MurT residues 1-35, 195-196 and 434-437 are not seen in the crystal structure) MRQWTAIHLAKLARKASRAVGKRGTDLPGQIARKVDTDILRKLAEQVDDIVFISGTNGKTTTSNLIGHTLKANNIQIIHNNEGANMAAGITSAFIMQSTPKTKIAVIEIDEGSIPRVLKEVTPSMMVFTNFFRDQMDRFGEIDIMVNNIAETISNKGIKLLLNADDPFVSRLKIASDTIVYYGMKAHAHEFEQSTMNESRYCPNCGRLLQYDYIHYNQIGHYHCQCGFKREQAKYEISSFDVAPFLYLNINDEKYDMKIAGDFNAYNALAAYTVLRELGLNEQTIKNGFETYTSDNGRMQYFKKERKEAMINLAKNPAGMNASLSVGEQLEGEKVYVISLNDNAADGRDTSWIYDADFEKLSKQQIEAIIVTGTRAEELQLRLKLAEVEVPIIVERDIYKATAKTMDYKGFTVAIPNYTSLAPMLEQLNRSFEGGQS",stoichiometry N,1
